Measurements from US20230002507A1 (Novartis, published 2023).

How the values were obtained:
[1] = biological target: Human FXI zymogen (human, UniProt P03951 19-625); assay: cell-based or functional assay
[2] = biological target: Human FXI activated (human, UniProt P03951 19-387; P03951 388-625); assay: cell-based or functional assay
Sequence of Human FXI activated (P03951 19-387 C226S limits assumed, chain 1 of 2): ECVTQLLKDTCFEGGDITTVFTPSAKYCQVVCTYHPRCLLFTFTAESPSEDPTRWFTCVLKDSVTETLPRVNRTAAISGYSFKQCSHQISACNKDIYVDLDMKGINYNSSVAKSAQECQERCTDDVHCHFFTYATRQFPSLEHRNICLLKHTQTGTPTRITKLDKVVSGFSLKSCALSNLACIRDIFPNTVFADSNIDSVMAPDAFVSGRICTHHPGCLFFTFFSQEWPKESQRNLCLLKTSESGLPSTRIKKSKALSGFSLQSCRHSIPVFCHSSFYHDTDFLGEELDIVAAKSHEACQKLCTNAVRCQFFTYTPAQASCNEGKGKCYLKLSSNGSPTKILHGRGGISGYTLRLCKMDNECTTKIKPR
Sequence of Human FXI activated (P03951 388-625 limits assumed, chain 2 of 2): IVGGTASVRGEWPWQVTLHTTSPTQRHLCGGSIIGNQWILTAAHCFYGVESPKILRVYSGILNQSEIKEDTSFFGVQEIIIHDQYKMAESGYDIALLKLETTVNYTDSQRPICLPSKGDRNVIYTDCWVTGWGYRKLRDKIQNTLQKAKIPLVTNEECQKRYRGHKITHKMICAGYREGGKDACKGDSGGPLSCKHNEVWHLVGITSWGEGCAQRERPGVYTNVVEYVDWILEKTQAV

Sequence of Human FXI zymogen (P03951 19-625 C226S limits assumed): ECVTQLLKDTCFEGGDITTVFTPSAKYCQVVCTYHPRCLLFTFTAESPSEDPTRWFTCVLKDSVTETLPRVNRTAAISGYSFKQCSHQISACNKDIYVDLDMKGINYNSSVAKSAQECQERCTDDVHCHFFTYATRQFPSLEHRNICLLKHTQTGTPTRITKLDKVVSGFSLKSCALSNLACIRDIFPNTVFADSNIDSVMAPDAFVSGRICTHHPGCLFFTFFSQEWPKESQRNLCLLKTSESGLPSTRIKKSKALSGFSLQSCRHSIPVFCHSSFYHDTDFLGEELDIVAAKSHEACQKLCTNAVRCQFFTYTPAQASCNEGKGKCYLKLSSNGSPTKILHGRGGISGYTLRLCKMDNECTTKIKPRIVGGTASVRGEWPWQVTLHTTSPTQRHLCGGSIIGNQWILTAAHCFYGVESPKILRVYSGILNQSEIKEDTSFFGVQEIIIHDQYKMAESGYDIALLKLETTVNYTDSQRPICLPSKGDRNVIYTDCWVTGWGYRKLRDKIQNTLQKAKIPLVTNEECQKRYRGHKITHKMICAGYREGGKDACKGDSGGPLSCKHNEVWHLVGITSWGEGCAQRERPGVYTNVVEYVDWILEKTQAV

- IC50, thrombin generation assay (TGA) in pooled human plasma [1]: 24 nM
- IC50, inhibition of FXIa enzymatic activity (cleavage of the fluorescent peptide substrate BS-2494) [2]: ~0.16 nM
- IC50, inhibition of the enzymatic activity of full length human FXIa (cleavage of a fluorescently labelled peptide) [2]: 0.16 nM
B1: NOV1401-IgG (antibody, V domains shown)
VH: QVQLLESGGGLVQPGGSLRLSCAASGFTFSTAAMSWVRQAPGKGLEWVSGISGSGSSTYYADSVKGRFTISRDNSKNTLYLQMNSLRAEDTAVYYCARELSYLYSGYYFDYWGQGTLVTVSS
VL: QSVLTQPPSASGTPGQRVTISCSGSSSNIGSNDVSWYQQLPGTAPKLLIYKNYNRPSGVPDRFSGSKSGTSASLAISGLQSEDEADYYCSAWDQRQFDVVFGGGTKLTVLG
